Source: US20150087814A1
pKd: −log10 of the molar value.

Assays:
FcγRIIIa-F158 = FcγRIIIa-F158 (UniProt P08637); test: SPR (Biacore T100), antibody captured on protein A chip, receptor injected as analyte, 1:1 steady-state fit
FcγRIIb = FcγRIIb (UniProt P31994); test: SPR (Biacore T100), antibody captured on protein A chip, receptor injected as analyte
FcγRIIb, sequence (P31994 46-217 limits assumed): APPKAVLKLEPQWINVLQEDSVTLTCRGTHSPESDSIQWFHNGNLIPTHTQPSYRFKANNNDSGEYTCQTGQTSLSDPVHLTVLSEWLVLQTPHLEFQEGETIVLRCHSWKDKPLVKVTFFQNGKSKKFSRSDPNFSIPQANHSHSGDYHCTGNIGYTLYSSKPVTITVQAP

FcγRIIIa-F158, sequence (P08637 17-208 limits assumed): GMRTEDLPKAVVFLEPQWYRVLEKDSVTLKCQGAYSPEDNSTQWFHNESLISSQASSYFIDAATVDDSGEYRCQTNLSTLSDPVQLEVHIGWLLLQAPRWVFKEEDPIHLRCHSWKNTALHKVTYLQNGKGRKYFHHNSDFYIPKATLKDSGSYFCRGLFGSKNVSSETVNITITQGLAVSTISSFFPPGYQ

nonfucosylated G2 glycoform of rituximab (10) (antibody)
pKd (FcγRIIIa-F158): 6.91
pKd (FcγRIIb): 5.64
